From US20260125446A1 (Eli Lilly, published 2026)
Like-named read-outs stand apart in the source and are kept apart here.

T1: human RXFP1 receptor (human, UniProt Q9HBX9 1-757)
T1 sequence: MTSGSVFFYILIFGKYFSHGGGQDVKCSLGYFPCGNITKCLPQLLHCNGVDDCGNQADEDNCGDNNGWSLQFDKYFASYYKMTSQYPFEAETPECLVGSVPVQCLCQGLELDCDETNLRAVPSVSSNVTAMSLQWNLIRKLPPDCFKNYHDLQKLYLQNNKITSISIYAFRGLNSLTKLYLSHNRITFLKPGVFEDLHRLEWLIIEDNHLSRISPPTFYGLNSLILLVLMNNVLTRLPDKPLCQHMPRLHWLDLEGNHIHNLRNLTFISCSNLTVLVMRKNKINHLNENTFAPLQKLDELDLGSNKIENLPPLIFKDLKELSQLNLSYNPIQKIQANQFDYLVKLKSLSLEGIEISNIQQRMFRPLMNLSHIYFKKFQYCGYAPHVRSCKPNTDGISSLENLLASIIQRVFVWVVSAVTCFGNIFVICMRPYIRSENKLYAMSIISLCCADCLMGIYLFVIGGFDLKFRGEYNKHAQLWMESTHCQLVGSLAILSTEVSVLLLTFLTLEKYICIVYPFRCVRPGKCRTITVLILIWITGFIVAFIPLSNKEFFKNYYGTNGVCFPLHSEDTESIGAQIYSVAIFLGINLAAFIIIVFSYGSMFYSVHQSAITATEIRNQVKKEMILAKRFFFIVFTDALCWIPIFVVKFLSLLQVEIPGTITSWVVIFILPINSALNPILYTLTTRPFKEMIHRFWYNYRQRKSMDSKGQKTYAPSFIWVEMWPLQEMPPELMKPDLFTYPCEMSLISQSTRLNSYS


Key:
human serum albumin = target: T2, human serum albumin (human, UniProt P02768 25-609); test: SPR (Biacore 8K), albumin immobilized on CM5 chip, 25 C, 1:1 kinetic fit
T2 construct: Bought protein, immobilized on a CM5 chip by amine coupling; also called Human SA
Description: (§1) The immobilization of the serum albumin to a Series S Sensor Chip CM5 surface is performed according to the manufacturer's instructions (Amine Coupling Kit BR-1000-50). Briefly, carboxyl groups on the sensor chip surfaces (flow cell 1 and 2) are activated by injecting 70 μL of a mixture containing 75 mg/mL EDC and 11.5 mg/mL NHS at 10 μL/min. Human, cynomolgus monkey, mouse, rat, pig, dog, cow and rabbit serum albumin are diluted in 10 mM sodium acetate pH 4.0 (BR-1003-49) at […] and then injected over the activated chip surfaces (flow cell 2, channel 1 to 8) at 10 μL/min for 180 sec (human, mouse, rat, pig and cow serum albumin are obtained from Sigma Aldrich (St. Louis, MO); cynomolgus monkey serum albumin is obtained from Hölzel Diagnostika (Cologne, Germany); dog serum albumin is obtained from Molecular Innovations (Novi, MI); and rabbit serum albumin is obtained from Fitzgerald Industries Intl. (Acton, MA). The various serum albumins are covalently immobilized through free amines onto a carboxymethyl dextran-coated sensor chip CM5 targeting a surface density of about 100 (62-145) RU. Excess reactive groups on the surfaces (flow cell 1 and 2) are deactivated by injecting 70 μL of 1 M ETA HCl—NaOH pH 8.5.
(§2) 150 μl of sample is individually injecting sequentially across the immobilized serum albumins on the chip's surface and dissociating for 600 sec at 50 μL/min flow rate at 25° C. The surface is regenerated by injecting 10 mM glycine-HCl pH 1.5 (BR-1003-54) at 50 μL/min for 100 sec. The resulting sensorgrams are analyzed using Biacore 8K Insight Evaluation Software (version 2.0.15.12933) 1:1 binding kinetics model fitting to calculate the binding kinetic parameter association rate (ka), dissociation rate (kd), and equilibrium dissociation constant (KD).

dog serum albumin = target: T3, dog serum albumin (dog, UniProt P49822 25-608); test: as above
T3 construct: Bought protein, immobilized on a CM5 chip by amine coupling; also called Dog SA
Description: as §1, §2

pig serum albumin = target: T4, pig serum albumin (pig, UniProt P08835 25-607); test: as above
T4 construct: Bought protein, immobilized on a CM5 chip by amine coupling; also called Pig SA
Description: as §1, §2

[1] = target: T5, cynomolgus monkey serum albumin (cynomolgus monkey, UniProt A2V9Z4 25-608); test: as above
T5 construct: Bought protein, immobilized on a CM5 chip by amine coupling; also called Cyno SA
Description: as §1, §2

rat serum albumin = target: T6, rat serum albumin (rat, UniProt P02770 25-608); test: as above
T6 construct: Bought protein, immobilized on a CM5 chip by amine coupling; also called Rat SA
Description: as §1, §2

mouse serum albumin = target: T7, mouse serum albumin (mouse, UniProt P07724 25-608); test: as above
T7 construct: Bought protein, immobilized on a CM5 chip by amine coupling; also called Mouse SA
Description: as §1, §2

cow serum albumin [2] = target: T8, cow serum albumin (cow, UniProt P02769 25-607); test: SPR (Biacore 8K), albumin immobilized on CM5 chip, 25 C, steady state
T8 construct: Bought protein, immobilized on a CM5 chip by amine coupling; also called Cow SA
Description: as §1
150 μl of sample is individually injecting sequentially across the immobilized serum albumins on the chip's surface and dissociating for 600 sec at 50 μL/min flow rate at 25° C. The surface is regenerated by injecting 10 mM glycine-HCl pH 1.5 (BR-1003-54) at 50 μL/min for 100 sec. The resulting sensorgrams are analyzed using Biacore 8K Insight Evaluation Software ([…]).

rabbit serum albumin = target: T9, rabbit serum albumin (rabbit, UniProt P49065 25-608); test: SPR (Biacore 8K), albumin immobilized on CM5 chip, 25 C
T9 construct: Bought protein, immobilized on a CM5 chip by amine coupling; also called Rabbit SA
Description: as §1, §2

human RXFP1 receptor = target: T1, human RXFP1 receptor; test: cell-based or functional assay
human RXFP2 receptor = human RXFP2 receptor (human, UniProt Q8WXD0 1-754); test: cell-based or functional assay
cow serum albumin [3] = target: T8, cow serum albumin; test: SPR (Biacore 8K), albumin immobilized on CM5 chip, 25 C, steady state; remark: listed apart in the source

Row | Binder | Kd (human serum albumin) [nM] | koff (human serum albumin) [s⁻¹] | kon (human serum albumin) [M⁻¹ s⁻¹] | Kd (dog serum albumin) [nM] | koff (dog serum albumin) [s⁻¹] | kon (dog serum albumin) [M⁻¹ s⁻¹] | Kd (pig serum albumin) [nM] | koff (pig serum albumin) [s⁻¹] | kon (pig serum albumin) [M⁻¹ s⁻¹] | Kd [1] [nM] | koff [1] [s⁻¹] | kon [1] [M⁻¹ s⁻¹] | Kd (rat serum albumin) [nM] | koff (rat serum albumin) [s⁻¹] | kon (rat serum albumin) [M⁻¹ s⁻¹] | Kd (mouse serum albumin) [nM] | koff (mouse serum albumin) [s⁻¹] | kon (mouse serum albumin) [M⁻¹ s⁻¹] | Kd (cow serum albumin [2]) [nM] | binding result (rabbit serum albumin) | further results
1 | RLN Analog 6 (other, Single-chain fusion: RLN2 B chain (desB1) - L2 - RLN2 A chain - PGPQ-repeat L1 - VHH (C-terminal)) SWMEEVIKLCGRELVRAQIAICGMSTWSGGGSGGSGGGQLYSALANKCCHVGCTKRSLARFCPGPQPGPQPGPQPGPQPGPQPGPQPGPQPGPQEVQLLESGGGLVQPGGSLRLSCAASGRYIDETAVAWFRQAPGKEREFVAGIGGGVDITYYADSVKGRFTISRDNSKNTLYLQMNSLRPEDTAVYYCAARPGRPLITSKVADLYPYWGQGTLVTVSSPP | 0.51 | 0.00024 | 470000 | 4.1 | 0.002 | 480000 | 24 | 0.0099 | 410000 | 2.3 | 0.001 | 430000 | 9.7 | 0.0048 | 490000 | 12 | 0.0076 | 630000 | 130 | no binding (tested: 1000 nM (highest concentration tested)) | hRXFP1 EC50 nM GeoMean (cAMP CRE luciferase reporter assay, CHO cells expressing human RXFP1) (human RXFP1 receptor): 15 nM; hRXFP2 EC50 nM GeoMean (cAMP CRE luciferase reporter assay, CHO cells expressing human RXFP2) (human RXFP2 receptor): 39 nM
2 | RLN Analog 10 (other, Single-chain fusion: RLN2 B chain (desB1) - L2 - RLN2 A chain - (PGPQ)8 L1 - VHH (C-terminal)) SWMEEVIKLCGRELVRAQIAICGMSTWSGGGSGGSGGGQLYSALANKCCHVGCTKRSLARFCPGPQPGPQPGPQPGPQPGPQPGPQPGPQPGPQEVQLLESGGGLVQPGGSLRLSCAASGRYIDETAVAWFRQAPGKGREFVAGIGGGVDITYYADSVKGRFTISRDNSKNTLYLQMNSLRPEDTAVYYCAARPGRPLITSKVADLYPYWGQGTLVTVSSPP | 0.37 | 0.0002 | 550000 | 3.4 | 0.0021 | 630000 | 20 | 0.0096 | 490000 | 1.5 | 0.00077 | 510000 | 7.8 | 0.0049 | 630000 | 9.7 | 0.0072 | 740000 | 100 | no binding (tested: 1000 nM (highest concentration tested)) | hRXFP1 EC50 nM GeoMean (cAMP CRE luciferase reporter assay, CHO cells expressing human RXFP1) (human RXFP1 receptor): 14 nM; hRXFP2 EC50 nM GeoMean (cAMP CRE luciferase reporter assay, CHO cells expressing human RXFP2) (human RXFP2 receptor): 32 nM
3 | RLN Analog 9 (other, Single-chain fusion: RLN2 B chain (desB1) - L2 - RLN2 A chain - (G4Q)5 L1 - VHH (C-terminal)) SWMEEVIKLCGRELVRAQIAICGMSTWSGGGSGGSGGGQLYSALANKCCHVGCTKRSLARFCGGGGQGGGGQGGGGQGGGGQGGGGQEVQLLESGGGLVQPGGSLRLSCAASGRYIDETAVAWFRQAPGKGREFVAGIGGGVDITYYADSVKGRFTISRDNSKNTLYLQMNSLRPEDTAVYYCAARPGRPLITSKVADLYPYWGQGTLVTVSSPP | 0.19 | 0.00018 | 950000 | 3.8 | 0.0036 | 950000 | 14 | 0.012 | 870000 | 0.86 | 0.00094 | 1.1e+06 | 8.2 | 0.0075 | 910000 | 9.5 | 0.011 | 1.2e+06 | 84 | no binding (tested: 1000 nM (highest concentration tested)) | hRXFP1 EC50 nM GeoMean (cAMP CRE luciferase reporter assay, CHO cells expressing human RXFP1) (human RXFP1 receptor): 5.2 nM; hRXFP2 EC50 nM GeoMean (cAMP CRE luciferase reporter assay, CHO cells expressing human RXFP2) (human RXFP2 receptor): 97 nM
4 | RLN Analog 13 (other, Single-chain fusion: VHH - (G4Q)5 L1 - RLN2 A chain (desA1-4) - L2 - RLN2 B chain (desB1)) EVQLLESGGGLVQPGGSLRLSCAASGRYIDETAVAWFRQAPGKGREFVAGIGGGVDITYYADSVKGRFTISRDNSKNTLYLQMNSLRPEDTAVYYCAARPGRPLITSKVADLYPYWGQGTLVTVSSGGGGQGGGGQGGGGQGGGGQGGGGQALANKCCHVGCTKRSLARFCGGGSGGSGGGSWMEEVIKLCGRELVRAQIAICGMSTWS | 0.14 | 0.00019 | 1.4e+06 | 0.92 | 0.0017 | 1.9e+06 | 5 | 0.006 | 1.2e+06 | 0.49 | 0.0007 | 1.4e+06 | 2 | 0.0033 | 1.7e+06 | 2.6 | 0.0048 | 1.8e+06 | – | no binding (tested: 1000 nM (highest concentration tested)) | Kd (cow serum albumin [3]): 29 nM
